Results published in PMC11098746 (2024).

B1: 81 (protein)
chain: EFVKGSYESKGYPLIHLMNNNEYTGSANNFIKNNLINLLYIYKDVKFDEEKTLGIDSFLDIEDDTKIERLIKEKMLYINKYINSRQMIKYSGFIYLYEIIEKKNFYFLLHFLMTNNNNGLIIILPEDMYINVDEYYRINKINKLNDQNKKNKVVSQDLLEKRIMFVQSLILNMKLQQSIYFIKNNKDIEKIYENYQSKFAYFDLTRNVAISPISKIQNVYKMNSKSLYYFLNKNNNIHINTIFNKQQDNQAFLLTKQKTIIICADFNVFNIFSDLPSNTAFTNSNLITIQNLIKLFYDVYNKEQVNYNILFFFTNYYYGIQDFLNSINVIFKENIEFVICLDNLNNADFYIYESNKAQPQNVQAFYRILNNIVKGSIKKNVQMVNEKIKIHSKHLPSLHEYFVLNKINSFSLSSSKKNNNMIFLNKFPMLQPKLNIQNVKNNIAIIFKSLYLYMTQKKTDQKENTQQEQSIEKNEKEKSMLTYINKNMASNDDMNTIDYNLNKYNKFFIYKEDTLKLFNYFKTIINSNIADTNFLIKDYKLTTDKKQKFFYQKYAHVTFSMAISYVFH
modifications: bait human Fc-tagged dimer
B2: 40 (protein)
chain: ISTHDTCDEWSEWSACTHGISTRKCLSDSSIKDETLVCTKCDKWGEWSECKDGRMHRKVLNCPFIKEEQECDVNNEMAEDTHMNNAYIYFNADDGDNEYEDHDDKNDDDKNYDNENDDDKNDDDKNDDDKNDDDKNDDDKNDDEENYNDAEEKVKNNDIHNSAANSNNEVTNFIQIKDKIMIKHKTTNIHPVNFIQEKYTRNNKYRSDNFAKILNNMNHINNNNYNSRSSSTSSKNARGYRGGSSNMYPHVPNYASSSVHNSANNERKSDEDLDNIEGDNIAKEERIVPINNKNYDNHDEHSNIHEHDTSRNVDNEKYNSNDDLPNLATYDYDMNNDAYKKNHMKKPMDSIKEEQTKQENNQNNEKVSSSEKQNDDISALYEHMNTKDQEHTQHEQPNDAAHGHFEDYSK
modifications: bait human Fc-tagged dimer
B3: 73 (protein)
chain: NNIKLNDKENINFESYFNKRTNEENVLNKNVAKEMGDTFVAHKAIELNINHHHVNNDKEFNNNNNNKHQPYYHNEHDKKFSESLKAHMDHLKILNNDLKQHIDKKERNEIYENNDLKKYIIKEIQNNKYLNKEKKSSEDIQILEEHSKKLQKEIHEWLESVNNIEEKSNILKNIKSQLLNNIASLNHALSEEIKNINDIKELQKQQNDLFSENWLYFLPSSSDYLLNEKKKNLYDNQDNSMKDDINNNDKYNIFNYLQNVQDKDNQYEVMKQDNNNIHSGSS
modifications: bait human Fc-tagged dimer
B4: 64 (protein)
chain: RMNVVSHNSMKKVGEEGKDEKIISCVVEYVIKGDLSIDDGDFCDSNSICSNNPGLCDNGQVVVPGDYCSNYYDITLVVEESSFVQKDYWLKGTIPFLESMVFNSNVAKDKAHMSVVLFAGKQRVVVPFTDESSQDKNMLLEKINSIDEGIATSSDTLYVNALKYAIENVIFGDGTRKDAPKVAVLFYYGFDYGANKNMIPDVVQTYKEQNVKLIIVGIALGIRDNAYLLADCSIGDENCVNVVFKPWDFVIPAAADVNQKICDKNKA
modifications: bait human Fc-tagged dimer
B5: 60 (protein)
chain: GIITGKLNYFGTFSLKIFAKTYFQYKINTYSNLYSYCGISQEYNKAKSTCESCPIGTFWNSEKLLCENCQKYIENTATLKNGAKLKTDCLCSPGYEYSDKSSKCEKCKPGYYKKSVGNFICIKGCPINEKSITYGAKSYAEMDCKCIEGYYRKEDKCVLCLSNYYCPGNELIKPCDKNKISKEGVIHKNDCICKENYIKDNKNNNCVYCASIAKILGKPIYCSLCDPIYFHEDIYKNIFLLPNNIHNYGLINNIYNYDEDLSLQGNIMKYAYFHKTTNIERNFAHYINIKNIYHTFNNNINNYDYLTNSKFAIEIDIPEPKKCIFCDSGYYIKKKKCISCTTKYCEGFNHNPKACPKNSVVNKMKASSIFDCSCKRGYGILNERRNAYSNTITCQICPQNFFKHIISDDSCFPCPLYTYTLNQGATSILQCLPKKGYFIYMFKSINIDYLRYKFDINTENRIYNYFENNNKIFDEDVYNFFLNKQYSKFFYNTENK
modifications: bait human Fc-tagged dimer

The binders below were run against FGFR4 ectodomain (Homo sapiens, UniProt P22455) (assay: AVEXIS normalised luminescence).
B1 gave a binding score of 0.817. For B2, the binding score was 1.75. In the case of B3, the binding score is reported as 198. In the case of B4, the binding score is reported as 0.876. B5 showed a binding score of 0.959.
